Source: PMC3707907, “TdIF1 Recognizes a Specific DNA Sequence through Its Helix-Turn-Helix and AT-Hook Motifs to Regulate Gene Transcription”

Legend:
TdIF1 (His-tagged) [1] = biological target: T1, TdIF1 (His-tagged) (UniProt Q9H147 1-329); assay: competition; EMSA vs biotin-dsAT; 5, 15, 45 pmol; complex decreased; EMSA: 10 mM Tris-HCl pH 7.5, 100 mM NaCl, 1 mM EDTA, 1 mM DTT, 5% glycerol, 5 pmol probe, 100 ng protein in 10 ul, temperature not stated; GST pull-out: elution in 50 mM Tris-HCl pH 7.4, 5 mM beta-mercaptoethanol, 0.25% Tween 20, 10% glycerol, 150-350 mM NaCl; conditions: protein: recombinant; tags: His; chain copies: 2
T1 sequence: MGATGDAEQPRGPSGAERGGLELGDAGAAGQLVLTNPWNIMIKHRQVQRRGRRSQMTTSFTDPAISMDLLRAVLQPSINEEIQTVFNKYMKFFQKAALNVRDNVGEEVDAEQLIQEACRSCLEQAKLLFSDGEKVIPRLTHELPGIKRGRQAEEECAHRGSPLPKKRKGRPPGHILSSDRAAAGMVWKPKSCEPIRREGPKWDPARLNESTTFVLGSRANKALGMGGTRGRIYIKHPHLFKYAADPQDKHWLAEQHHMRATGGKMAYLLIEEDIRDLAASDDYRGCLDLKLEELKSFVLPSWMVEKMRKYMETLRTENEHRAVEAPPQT

TdIF1 (His-tagged) [2] = biological target: T1, TdIF1 (His-tagged); assay: EMSA; EMSA: 10 mM Tris-HCl pH 7.5, 100 mM NaCl, 1 mM EDTA, 1 mM DTT, 5% glycerol, 5 pmol probe, 100 ng protein in 10 ul, temperature not stated; GST pull-out: elution in 50 mM Tris-HCl pH 7.4, 5 mM beta-mercaptoethanol, 0.25% Tween 20, 10% glycerol, 150-350 mM NaCl; conditions: protein: recombinant; tags: His; chain copies: 2; label: biotin
TdIF1 (His-tagged) [3] = biological target: T1, TdIF1 (His-tagged); assay: competition; EMSA vs biotin-dsAT; 5, 15, 45 pmol; slightly weaker than competitor I; EMSA: 10 mM Tris-HCl pH 7.5, 100 mM NaCl, 1 mM EDTA, 1 mM DTT, 5% glycerol, 5 pmol probe, 100 ng protein in 10 ul, temperature not stated; GST pull-out: elution in 50 mM Tris-HCl pH 7.4, 5 mM beta-mercaptoethanol, 0.25% Tween 20, 10% glycerol, 150-350 mM NaCl; conditions: protein: recombinant; tags: His; chain copies: 2

B1: Competitor I (SELEX clone 10; AT-tract + GNTGCATG) (dsDNA)
DNA 1: CGCCAAATAAAAGTTGCATGGTCG
DNA 2: CGACCATGCAACTTTTATTTGGCG
binding result (TdIF1 (His-tagged) [1]): binds

B2: biotin-dsAT probe (32-bp AT-rich dsDNA) (dsDNA)
DNA 1: CGGTATTAAAAATTACTGACAATATTAAATTAGATC
DNA 2: TAATTTAATATTGTCAGTAATTTTTAATACCG
binding result (TdIF1 (His-tagged) [2]): binds

B3: Competitor III (GNTGCATG only, AT-tract mutated) (dsDNA)
DNA 1: CGCCAAGCCTCAGTTGCATGGTCG
DNA 2: CGACCATGCAACTGAGGCTTGGCG
binding result (TdIF1 (His-tagged) [3]): binds
